Measurements as given in the nanobody polyreactivity screen of Harvey et al. (2022).

Test: yeast display, Sf9 membrane polyspecificity reagent, FACS + sequencing; frameworks hold sequencing errors
Procedure, shortened: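 Nanobodies from a synthetic yeast display library (Saccharomyces cerevisiae BJ5465), induced 36–48 hours with galactose, were stained 1 hour at 4 °C with 10% biotinylated, detergent-solubilized Sf9 membrane reagent, enriched on streptavidin microbeads, then FACS-sorted. Anti-HA (expression) and streptavidin (reagent binding) fluorescence set low and high (top ~1%) gates. Polyreactivity labels come from the gate of origin. Genes were colony-PCR amplified, MiSeq 2 × 250 sequenced and filtered by CDR length.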

| Sequence | polyreactivity (PSR sort gate) |
| --- | --- |
| QVQLVESGGGLVQAGGSLRLSCAASGSIFYSNAMGWYRQAPGKERELVAAINWSGVRTYYADSVKGRFTISRDNAKNTVYLQMNSLKPEDTAVYYCAAKTYQQQIVRPMYYWGQCTQVTVSS | high polyreactivity |
| QVQLVESGGGLVQAGGSLRLSCAASGSIFYSNAMGWYRQAPGKERELVAAITVGGGRTYYADSVKGRFTISRDNAKYTVYLQMNSLNPEDTAVYYCAADSHASTYDYWGQGTQVTVSS | low polyreactivity |
| QVQLVESGGGLVQAGGSLRLSCAASGSIFYSNAMGWYRQAPGKERELVADISWSDGSTYYADSVKGRFTISRDNAKNNVYLQMNSLKPEDTEVYYCARKAGYSYFRRYDYWGQGTQVTVSS | low polyreactivity |
| QVQLVESGGGLVQAGGSLRLSCAASGSIFYSNKGWYRQAPGKEREFVAAISGSGVRTYYADSVKGRFTISRDNAKNTVYLQMNSLKPEDTAVYYCNAGRRQDYRYIYWGQGTQVTVSS | high polyreactivity |
| QVQLVESGGGLVQAGGSLRLSCAASGSIFYSNTIGWYRQAPRKERELDAAITSGGGTNYADSVKGRFTISRDNAKNTVYLQMNSLKPEDTAVYYCAAVTKTLYRSYFLMYYWGQGTQVTVSS | high polyreactivity |
| QVQLVESGGGLVQAGGSLRLSCAASGSIFYSNVMGWYRQAPGKERELVARITDAGSTNYADSVKGRFTISRDNAKNTVYLQMNSLKPEDTAVYYCNARLVIYTYDYWGQGTQVTVSS | low polyreactivity |
| QVQLVESGGGLVQAGGSLRLSCAASGSIFYSNVMGWYRQAPGKERELVARITVAGSTNYADSVKGRFTISRDNAKNTVYLQMNSLKPEDTAVYYCNARLVIYTYDYWGQGTQVTVSS | low polyreactivity |
| QVQLVESGGGLVQAGGSLRLSCAASGSIFYSNVMGWYRQAPGKERELVASITNGGGTYYADSVKGRFTISRDNAKTTVYLQMNSLKPEDTAVYYCARRVYYWGQGTQVTVSS | high polyreactivity |
| QVQLVESGGGLVQAGGSLRLSCAASGSIFYSNVMGWYRQAPGQERELVARITDAGSTNYADSVKGRFTISRDNAKHTVYFQMNSLKPEDTAVYYCNARLVIYTFDYWGQGTLVTVSS | low polyreactivity |
| QVQLVESGGGLVQAGGSLRLSCAASGSIFYSYAMAWYRQAPGKERELVAAITSGGSTYYADSVKGRFTISRDNAKNTVYLQMNTLKPEDTAVYYCAKRWPAYWGKGHGSWGQGTQVTVSS | high polyreactivity |
| QVQLVESGGGLVQAGGSLRLSCAASGSIFYSYAMGWYIQAHGKERELVARINYRGGSTYYADSVKGRFTISRDNAKNTVYLQMNSLKPEDTAVFYCAKRSYWSSNPRDYWGQGTKVTVSS | high polyreactivity |
| QVQLVESGGGLVQAGGSLRLSCAASGSIFYSYAMGWYRQAPGKERELVAAISRSGVSTYYADSVKGRFTISRDNAKNTVYLQMNSLKPEDTAVYYCASPYFVSYQGYDYWGQGTQVTVSS | high polyreactivity |
| QVQLVESGGGLVQAGGSLRLSCAASGSIFYSYGMGWYRQAPGKERELVAAITSSGGGTYYADSVKGRFTISRDNAKNTVYLQMNSLKPEDTAVYYCAADDRNYNYYPTFYYWGQGTQVTVSS | low polyreactivity |
| QVQLVESGGGLVQAGGSLRLSCAASGSIFYSYVMGWYRQAPGKERELVAAISRNGQSTYYADSVKGRFTISRDNAKNTVYLQMNSLKPEDTAVYYCATRGTKSIKDVPGIRYGYWGQGTQVTVSS | high polyreactivity |
| QVQLVESGGGLVQAGGSLRLSCAASGSIFYTYAMGWYRQAPGKERELVAGISWRGGSTYYADSVKGRYTISRDNAKNTVYLQMNSLNPEDTAVYYCAASYFWDRVPGRGIHDYWGQGTQVTVSS | high polyreactivity |
| QVQLVESGGGLVQAGGSLRLSCAASGSIFYTYAMGWYRQAPGKERELVASITNDDSTNYADSVKGRFTISRDNAKKTVYLQMNSLKPEDTAVYYCADDSNWIYDIEYDYWGQGTQVTVSS | low polyreactivity |
| QVQLVESGGGLVQAGGSLRLSCAASGSIFYVNAMGWYRQAPGKERELVASITASGGTTYYADSVKGRFTISRDNAKNNVYLQMNSLKPEDTAVYYCAATFIQVVVNVQLYDYDYWGQGTQVTVSS | low polyreactivity |
